The values that follow come from patent publication US20100260668A1 (published 2010).

For assay [1], the target named is T1, DLL4 ECD His tag (UniProt Q9NR61 27-529, limits assumed).
T1 construct: extracellular domain; also called DLL ECD His tag
The experiment in a line: SPR (Biacore), DVD-Ig captured, DLL4 as analyte.

Assay [2] addresses T2, VEGF (UniProt P15692-4 27-191).
T2 construct: Bought reagent; also called vascular endothelial growth factor
The experiment in a line: SPR (Biacore), DVD-Ig captured, VEGF in solution.

T2 sequence (P15692 other isoform, or with tags, fused parts or gaps limits assumed): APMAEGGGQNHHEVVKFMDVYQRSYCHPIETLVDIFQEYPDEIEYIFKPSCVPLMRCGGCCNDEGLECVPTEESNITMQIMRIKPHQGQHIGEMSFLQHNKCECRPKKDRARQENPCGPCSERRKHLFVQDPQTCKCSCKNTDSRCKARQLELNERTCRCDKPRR

B1: DVD490 (bispecific antibody, human IgG1, kappa)
heavy: not shown
light: DIQMTQSPSSLSASVGDRVTITCRASQDVSTAVAWYQQKPGKAPKLLIYSASFLYSGVPSRFSGSGSGTDFTLTISSLQPEDFATYYCQQSYTTPPTFGQGTKVEIKRTVAAPDIQMTQSSSYLSVSLGGRVTITCKASDHINNWLAWYQQKPGNAPRLLISGATSLETGVPSRFSGSGSGKDYTLSITSLQTEDVATYYCQQYWSIPLTFGAGTKLELKRTVAAPSVFIFPPSDEQLKSGTASVVCLLNNFYPREAKVQWKVDNALQSGNSQESVTEQDSKDSTYSLSSTLTLSKADYEKHKVYACEVTHQGLSSPVTKSFNRGEC
notes: HC linker short, LC linker short; also called DVD-Ig DVD490
For B1, in assay [1], the Kd worked out at 0.528 nM, the koff stood at 7.7e-05 s⁻¹ and the kon turned out to be 146000 M⁻¹ s⁻¹.

B2: DVD502 (bispecific antibody, human IgG1, kappa)
heavy: not shown
light: DIQMTQSPSSLSASVGDRVTITCRASQDVSTAVAWYQQKPGKAPKLLIYSASFLYSGVPSRFSGSGSGTDFTLTISSLQPEDFATYYCQQSYTTPPTFGQGTKVEIKRTVAAPDIQMTQSSSYLSVSLGGRVTITCKASDHINNWLAWYQQKPGNAPRLLISGATSLETGVPSRFSGSGSGKDYTLSITSLQTEDVATYYCQQYWSIPLTFGAGTKLELKRTVAAPSVFIFPPSDEQLKSGTASVVCLLNNFYPREAKVQWKVDNALQSGNSQESVTEQDSKDSTYSLSSTLTLSKADYEKHKVYACEVTHQGLSSPVTKSFNRGEC
notes: HC linker long, LC linker short; also called DVD-Ig DVD502
In assay [1], B2 displayed a Kd of 0.807 nM, a koff of 7.43e-05 s⁻¹ and a kon of 92100 M⁻¹ s⁻¹.

B3: DVD474 (bispecific antibody, human IgG1, kappa)
heavy: not shown
light: DIQMTQSPSSLSASVGDRVTITCRASQVIRRSLAWYQQKPGKAPKLLIYAASNLASGVPSRFSGSGSGTDFTLTISSLQPEDFATYYCQQSNTSPLTFGQGTKVEIKRTVAAPSVFIFPPDIQMTQSPSSLSASVGDRVTITCRASQDVSTAVAWYQQKPGKAPKLLIYSASFLYSGVPSRFSGSGSGTDFTLTISSLQPEDFATTYYCQQSYTGTVTFGQGTKVEIKRTVAAPSVFIFPPSDEQLKSGTASVVCLLNNFYPREAKVQWKVDNALQSGNSQESVTEQDSKDSTYSLSSTLTLSKADYEKHKVYACEVTHQGLSSPVTKSFNRGEC
notes: DVD-Ig; N-term; VD AB071 (VEGF), C-term; VD AB015 (DLL4); HC linker long, LC linker long; also called DVD474H; DVD474L
In turn, B3 returned a Kd in assay [2] of 0.00144 nM.

B4: DVD486 (bispecific antibody, human IgG1, kappa)
heavy: not shown
light: DIQMTQSPSSLSASVGDRVTITCRASQVIRRSLAWYQQKPGKAPKLLIYAASNLASGVPSRFSGSGSGTDFTLTISSLQPEDFATYYCQQSNTSPLTFGQGTKVEIKRTVAAPSVFIFPPDIQMTQSPSSLSASVGDRVTITCRASQDVSTAVAWYQQKPGKAPKLLIYSASFLYSGVPSRFSGSGSGTDFTLTISSLQPEDFATTYYCQQSYTGTVTFGQGTKVEIKRTVAAPSVFIFPPSDEQLKSGTASVVCLLNNFYPREAKVQWKVDNALQSGNSQESVTEQDSKDSTYSLSSTLTLSKADYEKHKVYACEVTHQGLSSPVTKSFNRGEC
notes: DVD-Ig; N-term; VD AB071 (VEGF), C-term; VD AB015 (DLL4); HC linker short, LC linker long; also called DVD486H; DVD486L
As to B4, in assay [2], the Kd worked out at 0.371 nM.

B5: DVD452 (bispecific antibody, human IgG1, kappa, L234A L235A)
heavy: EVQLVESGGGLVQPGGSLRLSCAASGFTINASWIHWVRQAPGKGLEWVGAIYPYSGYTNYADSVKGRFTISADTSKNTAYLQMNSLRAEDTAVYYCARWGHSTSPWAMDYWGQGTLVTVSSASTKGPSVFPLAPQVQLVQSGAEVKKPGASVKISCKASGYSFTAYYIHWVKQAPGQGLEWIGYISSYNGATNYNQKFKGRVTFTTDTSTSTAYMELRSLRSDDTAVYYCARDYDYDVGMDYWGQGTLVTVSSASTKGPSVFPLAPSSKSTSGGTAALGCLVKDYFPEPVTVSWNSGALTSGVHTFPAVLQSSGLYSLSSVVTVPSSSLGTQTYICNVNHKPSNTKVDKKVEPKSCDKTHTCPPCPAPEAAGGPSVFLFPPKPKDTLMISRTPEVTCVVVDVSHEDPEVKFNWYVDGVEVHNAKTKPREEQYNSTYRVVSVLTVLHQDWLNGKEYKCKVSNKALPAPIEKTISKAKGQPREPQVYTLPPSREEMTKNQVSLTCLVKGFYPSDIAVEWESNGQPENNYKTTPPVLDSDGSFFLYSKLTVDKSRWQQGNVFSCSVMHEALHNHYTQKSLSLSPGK
light: DIQMTQSPSSLSASVGDRVTITCRASQVIRRSLAWYQQKPGKAPKLLIYAASNLASGVPSRFSGSGSGTDFTLTISSLQPEDFATYYCQQSNTSPLTFGQGTKVEIKRTVAAPSVFIFPPDIVMTQSPDSLAVSLGERATISCRASESVDNYGISFMKWFQQKPGQPPKLLIYAASNQGSGVPDRFSGSGSGTDFTLTISSLQAEDVAVYYCQQSKEVPWTFGGGTKVEIKRTVAAPSVFIFPPSDEQLKSGTASVVCLLNNFYPREAKVQWKVDNALQSGNSQESVTEQDSKDSTYSLSSTLTLSKADYEKHKVYACEVTHQGLSSPVTKSFNRGEC
notes: DVD-Ig; N-term; VD AB071 (VEGF), C-term; VD AB069 (DLL4); HC linker long, LC linker long; also called DVD452H; DVD452L
B5: in assay [2], the Kd stood at 0.000155 nM, the koff came out at 1.61e-08 s⁻¹ and the kon came to 104000 M⁻¹ s⁻¹.

B6: DVD464 (bispecific antibody, human IgG1, kappa)
heavy: not shown
light: DIQMTQSPSSLSASVGDRVTITCRASQVIRRSLAWYQQKPGKAPKLLIYAASNLASGVPSRFSGSGSGTDFTLTISSLQPEDFATYYCQQSNTSPLTFGQGTKVEIKRTVAAPSVFIFPPDIVMTQSPDSLAVSLGERATISCRASESVDNYGISFMKWFQQKPGQPPKLLIYAASNQGSGVPDRFSGSGSGTDFTLTISSLQAEDVAVYYCQQSKEVPWTFGGGTKVEIKRTVAAPSVFIFPPSDEQLKSGTASVVCLLNNFYPREAKVQWKVDNALQSGNSQESVTEQDSKDSTYSLSSTLTLSKADYEKHKVYACEVTHQGLSSPVTKSFNRGEC
notes: DVD-Ig; N-term; VD AB071 (VEGF), C-term; VD AB069 (DLL4); HC linker short, LC linker long; also called DVD464H; DVD464L
In assay [2], B6 showed a Kd of 0.00077 nM, a koff of 7.22e-08 s⁻¹ and a kon of 93700 M⁻¹ s⁻¹.

B7: DVD516 (bispecific antibody, human IgG1, lambda)
heavy: not shown
light: DIQMTQSPSSLSASVGDRVTITCRASQVIRRSLAWYQQKPGKAPKLLIYAASNLASGVPSRFSGSGSGTDFTLTISSLQPEDFATYYCQQSNTSPLTFGQGTKVEIKRTVAAPQAVVTQESALTTSPGETVTLTCRSSTGAVTTSNYANWVQEKPDHLFTGLIGGTNNRAPGVPARFSGSLIGDKAALTITGAQTEDEAIYFCALWYSNHWVFGGGTKLTVLGQPKAAPSVTLFPPSSEELQANKATLVCLISDFYPGAVTVAWKADSSPVKAGVETTTPSKQSNNKYAASSYLSLTPEQWKSHRSYSCQVTHEGSTVEKTVAPTECS
notes: DVD-Ig; N-term; VD AB071 (VEGF), C-term; VD AB073 (DLL4); HC linker short, LC linker short; also called DVD516H; DVD516L
In assay [2], B7 showed a Kd of 0.781 nM, a koff of 0.00028 s⁻¹ and a kon of 358000 M⁻¹ s⁻¹.

B8: DVD532 (bispecific antibody, human IgG1, kappa, lambda)
heavy: not shown
light: DIQMTQSPSSLSASVGDRVTITCRASQDVSTAVAWYQQKPGKAPKLLIYSASFLYSGVPSRFSGSGSGTDFTLTISSLQPEDFATYYCQQSYTTPPTFGQGTKVEIKRTVAAPSVFIFPPQAVVTQESALTTSPGETVTLTCRSSTGAVTTSNYANWVQEKPDHLFTGLIGGTNNRAPGVPARFSGSLIGDKAALTITGAQTEDEAIYFCALWYSNHWVFGGGTKLTVLGQPKAAPSVTLFPPSSEELQANKATLVCLISDFYPGAVTVAWKADSSPVKAGVETTTPSKQSNNKYAASSYLSLTPEQWKSHRSYSCQVTHEGSTVEKTVAPTECS
notes: HC linker short, LC linker long; also called DVD-Ig DVD532
In assay [1], B8 registered a Kd of 6.85 nM, a koff of 0.00081 s⁻¹ and a kon of 118000 M⁻¹ s⁻¹.

B9: DVD446 (bispecific antibody, human IgG1, kappa)
heavy: not shown
light: DIQMTQSPSSLSASVGDRVTITCRASQVIRRSLAWYQQKPGKAPKLLIYAASNLASGVPSRFSGSGSGTDFTLTISSLQPEDFATYYCQQSNTSPLTFGQGTKVEIKRTVAAPDIVMTQSPDSLAVSLGERATISCRASESVDNYGISFMKWFQQKPGQPPKLLIYAASNQGSGVPDRFSGSGSGTDFTLTISSLQAEDVAVYYCQQSKEVPWTFGGGTKVEIKRTVAAPSVFIFPPSDEQLKSGTASVVCLLNNFYPREAKVQWKVDNALQSGNSQESVTEQDSKDSTYSLSSTLTLSKADYEKHKVYACEVTHQGLSSPVTKSFNRGEC
notes: DVD-Ig; N-term; VD AB071 (VEGF), C-term; VD AB069 (DLL4); HC linker short, LC linker short; also called DVD446H; DVD446L
Take B9: in assay [2], the Kd amounted to 0.000297 nM, the koff was determined as 3.62e-08 s⁻¹ and the kon worked out at 122000 M⁻¹ s⁻¹.

B10: DVD458 (bispecific antibody, human IgG1, kappa, L234A L235A)
heavy: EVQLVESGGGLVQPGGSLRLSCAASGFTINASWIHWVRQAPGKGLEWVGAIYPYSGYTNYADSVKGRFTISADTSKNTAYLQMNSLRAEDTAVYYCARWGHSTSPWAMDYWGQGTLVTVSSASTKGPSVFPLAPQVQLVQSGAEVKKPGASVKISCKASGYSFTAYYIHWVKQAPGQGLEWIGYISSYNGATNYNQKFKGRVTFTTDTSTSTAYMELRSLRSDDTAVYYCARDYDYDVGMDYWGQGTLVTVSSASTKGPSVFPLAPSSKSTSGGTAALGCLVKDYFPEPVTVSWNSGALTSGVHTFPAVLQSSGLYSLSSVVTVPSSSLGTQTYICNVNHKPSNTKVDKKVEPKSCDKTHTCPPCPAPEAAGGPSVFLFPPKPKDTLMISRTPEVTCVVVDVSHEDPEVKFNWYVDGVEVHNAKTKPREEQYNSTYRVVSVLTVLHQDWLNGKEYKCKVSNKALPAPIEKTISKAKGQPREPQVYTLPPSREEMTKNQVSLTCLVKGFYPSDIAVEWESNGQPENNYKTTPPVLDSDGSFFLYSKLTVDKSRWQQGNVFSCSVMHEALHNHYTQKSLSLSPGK
light: DIQMTQSPSSLSASVGDRVTITCRASQVIRRSLAWYQQKPGKAPKLLIYAASNLASGVPSRFSGSGSGTDFTLTISSLQPEDFATYYCQQSNTSPLTFGQGTKVEIKRTVAAPDIVMTQSPDSLAVSLGERATISCRASESVDNYGISFMKWFQQKPGQPPKLLIYAASNQGSGVPDRFSGSGSGTDFTLTISSLQAEDVAVYYCQQSKEVPWTFGGGTKVEIKRTVAAPSVFIFPPSDEQLKSGTASVVCLLNNFYPREAKVQWKVDNALQSGNSQESVTEQDSKDSTYSLSSTLTLSKADYEKHKVYACEVTHQGLSSPVTKSFNRGEC
notes: DVD-Ig; N-term; VD AB071 (VEGF), C-term; VD AB069 (DLL4); HC linker long, LC linker short; also called DVD458H; DVD458L
As to B10, in assay [2], the Kd was found to be 0.000281 nM, the koff was 3.39e-08 s⁻¹ and the kon came to 121000 M⁻¹ s⁻¹.

B11: DVD496 (bispecific antibody, human IgG1, kappa)
heavy: not shown
light: DIQMTQSPSSLSASVGDRVTITCRASQDVSTAVAWYQQKPGKAPKLLIYSASFLYSGVPSRFSGSGSGTDFTLTISSLQPEDFATYYCQQSYTTPPTFGQGTKVEIKRTVAAPSVFIFPPDIQMTQSSSYLSVSLGGRVTITCKASDHINNWLAWYQQKPGNAPRLLISGATSLETGVPSRFSGSGSGKDYTLSITSLQTEDVATYYCQQYWSIPLTFGAGTKLELKRTVAAPSVFIFPPSDEQLKSGTASVVCLLNNFYPREAKVQWKVDNALQSGNSQESVTEQDSKDSTYSLSSTLTLSKADYEKHKVYACEVTHQGLSSPVTKSFNRGEC
notes: HC linker long, LC linker long; also called DVD-Ig DVD496
Turning to B11, in assay [1], the Kd is 1.44 nM, the koff was determined as 0.000172 s⁻¹ and the kon is 120000 M⁻¹ s⁻¹.

B12: DVD508 (bispecific antibody, human IgG1, kappa)
heavy: not shown
light: DIQMTQSPSSLSASVGDRVTITCRASQDVSTAVAWYQQKPGKAPKLLIYSASFLYSGVPSRFSGSGSGTDFTLTISSLQPEDFATYYCQQSYTTPPTFGQGTKVEIKRTVAAPSVFIFPPDIQMTQSSSYLSVSLGGRVTITCKASDHINNWLAWYQQKPGNAPRLLISGATSLETGVPSRFSGSGSGKDYTLSITSLQTEDVATYYCQQYWSIPLTFGAGTKLELKRTVAAPSVFIFPPSDEQLKSGTASVVCLLNNFYPREAKVQWKVDNALQSGNSQESVTEQDSKDSTYSLSSTLTLSKADYEKHKVYACEVTHQGLSSPVTKSFNRGEC
notes: HC linker short, LC linker long; also called DVD-Ig DVD508
In assay [1], B12 returned a Kd of 1.7 nM, a koff of 0.000167 s⁻¹ and a kon of 98400 M⁻¹ s⁻¹.

B13: DVD480 (bispecific antibody, human IgG1, kappa)
heavy: not shown
light: DIQMTQSPSSLSASVGDRVTITCRASQVIRRSLAWYQQKPGKAPKLLIYAASNLASGVPSRFSGSGSGTDFTLTISSLQPEDFATYYCQQSNTSPLTFGQGTKVEIKRTVAAPDIQMTQSPSSLSASVGDRVTITCRASQDVSTAVAWYQQKPGKAPKLLIYSASFLYSGVPSRFSGSGSGTDFTLTISSLQPEDFATTYYCQQSYTGTVTFGQGTKVEIKRTVAAPSVFIFPPSDEQLKSGTASVVCLLNNFYPREAKVQWKVDNALQSGNSQESVTEQDSKDSTYSLSSTLTLSKADYEKHKVYACEVTHQGLSSPVTKSFNRGEC
notes: DVD-Ig; N-term; VD AB071 (VEGF), C-term; VD AB015 (DLL4); HC linker long, LC linker short; also called DVD480H; DVD480L
Regarding B13, in assay [2], the dissociation constant Kd was determined as 0.302 nM, the koff turned out to be 4.91e-05 s⁻¹ and the kon is 162000 M⁻¹ s⁻¹.

B14: DVD522 (bispecific antibody, human IgG1, kappa, lambda, L234A L235A)
heavy: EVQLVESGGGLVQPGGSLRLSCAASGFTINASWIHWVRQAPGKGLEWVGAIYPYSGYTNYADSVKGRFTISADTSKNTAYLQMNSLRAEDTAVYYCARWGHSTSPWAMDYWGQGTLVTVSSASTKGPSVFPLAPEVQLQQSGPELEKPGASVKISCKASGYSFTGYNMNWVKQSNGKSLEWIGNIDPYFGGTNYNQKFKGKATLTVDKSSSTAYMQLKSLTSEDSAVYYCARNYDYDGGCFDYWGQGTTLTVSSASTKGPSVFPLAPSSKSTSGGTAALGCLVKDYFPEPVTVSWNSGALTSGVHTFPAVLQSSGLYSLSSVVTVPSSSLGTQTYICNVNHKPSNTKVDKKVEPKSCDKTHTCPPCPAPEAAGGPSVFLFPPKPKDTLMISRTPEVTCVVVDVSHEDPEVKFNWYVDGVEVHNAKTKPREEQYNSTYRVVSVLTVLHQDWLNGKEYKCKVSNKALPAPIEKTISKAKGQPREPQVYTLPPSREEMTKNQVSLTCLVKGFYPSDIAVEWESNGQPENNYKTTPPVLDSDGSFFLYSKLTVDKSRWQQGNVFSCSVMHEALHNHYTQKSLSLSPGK
light: DIQMTQSPSSLSASVGDRVTITCRASQVIRRSLAWYQQKPGKAPKLLIYAASNLASGVPSRFSGSGSGTDFTLTISSLQPEDFATYYCQQSNTSPLTFGQGTKVEIKRTVAAPSVFIFPPQAVVTQESALTTSPGETVTLTCRSSTGAVTTSNYANWVQEKPDHLFTGLIGGTNNRAPGVPARFSGSLIGDKAALTITGAQTEDEAIYFCALWYSNHWVFGGGTKLTVLGQPKAAPSVTLFPPSSEELQANKATLVCLISDFYPGAVTVAWKADSSPVKAGVETTTPSKQSNNKYAASSYLSLTPEQWKSHRSYSCQVTHEGSTVEKTVAPTECS
notes: DVD-Ig; N-term; VD AB071 (VEGF), C-term; VD AB073 (DLL4); HC linker long, LC linker long; also called DVD522H; DVD522L
Take B14: in assay [2], the dissociation constant Kd stood at 0.45 nM, the koff stood at 0.00022 s⁻¹ and the kon stood at 489000 M⁻¹ s⁻¹.
